Reference: the supplement of paper PMC9112550, “Optimization of the antimicrobial peptide Bac7 by deep mutational scanning” (BMC Biology, 2022)

What follows are sequences tested on Escherichia coli TOP10 (assay: shrunken log2 fold change of peptide-encoding DNA abundance (4.5 h post-induction vs induction); higher = less antimicrobial activity (less host growth inhibition)). Conditions: time post-induction: 4.5 h; library: site-saturation at positions 5, 18, 19, 20.
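Further: peptides expressed intracellularly from a pBAD plasmid library in pooled LB shake-flask culture, induced with 0.3% L-arabinose, DNA abundance read by NGS, three biological replicates, DESeq2 with apeglm shrinkage.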

Q: RRIRARPPRLPRPRPRPARPPRP was tested. Which “shrunken log2 fold change” value did it give?
A: 0.827

Q: For RRIRHRPPRLPRPRPRPQIFPRP, which “shrunken log2 fold change” value is on record?
A: -0.135

Q: For RRIRNRPPRLPRPRPRPWKIPRP, which “shrunken log2 fold change” value is on record?
A: 0.089

Q: With RRIRLRPPRLPRPRPRPVYLPRP as the sequence, how does the “shrunken log2 fold change” value read?
A: -1.14

Q: RRIRMRPPRLPRPRPRPALDPRP was tested. Which “shrunken log2 fold change” value did it give?
A: 0.94

Q: How did the “shrunken log2 fold change” value turn out when RRIRSRPPRLPRPRPRPDIIPRP was run?
A: -0.16

Q: Which “shrunken log2 fold change” value does the source give for RRIRPRPPRLPRPRPRPIRIPRP here?
A: -0.149

Q: How did the “shrunken log2 fold change” value turn out when RRIRLRPPRLPRPRPRPILSPRP was run?
A: -0.0305

Q: For RRIRSRPPRLPRPRPRPWQRPRP, which “shrunken log2 fold change” value is on record?
A: 0.074

Q: With RRIRVRPPRLPRPRPRPEWHPRP as the sequence, how does the “shrunken log2 fold change” value read?
A: -0.158

Q: For RRIRTRPPRLPRPRPRPRWIPRP, which “shrunken log2 fold change” value is on record?
A: 0.0272

Q: How did the “shrunken log2 fold change” value turn out when RRIRARPPRLPRPRPRPNWDPRP was run?
A: 0.0564

Q: Which “shrunken log2 fold change” value does the source give for RRIRYRPPRLPRPRPRPFTMPRP here?
A: -0.558

Q: Which “shrunken log2 fold change” value does the source give for RRIRERPPRLPRPRPRPRPNPRP here?
A: 0.451

Q: With RRIRLRPPRLPRPRPRPDDEPRP as the sequence, how does the “shrunken log2 fold change” value read?
A: -0.0861

Q: Which “shrunken log2 fold change” value does the source give for RRIRDRPPRLPRPRPRPFTPPRP here?
A: -0.38

Q: Which “shrunken log2 fold change” value does the source give for RRIRPRPPRLPRPRPRPPGKPRP here?
A: 0.335

Q: Which “shrunken log2 fold change” value does the source give for RRIRRRPPRLPRPRPRPKHSPRP here?
A: 0.0683

Q: How did the “shrunken log2 fold change” value turn out when RRIRGRPPRLPRPRPRPVFHPRP was run?
A: 0.0913

Q: Which “shrunken log2 fold change” value does the source give for RRIRVRPPRLPRPRPRPKQEPRP here?
A: 0.239

Q: RRIRWRPPRLPRPRPRPYCNPRP was tested. Which “shrunken log2 fold change” value did it give?
A: -0.455

Q: With RRIRGRPPRLPRPRPRPSPGPRP as the sequence, how does the “shrunken log2 fold change” value read?
A: 0.732

Q: With RRIRDRPPRLPRPRPRPVNVPRP as the sequence, how does the “shrunken log2 fold change” value read?
A: -0.96

Q: With RRIRPRPPRLPRPRPRPNNTPRP as the sequence, how does the “shrunken log2 fold change” value read?
A: -0.312

Q: RRIRERPPRLPRPRPRPLQRPRP was tested. Which “shrunken log2 fold change” value did it give?
A: -0.131

Q: With RRIRPRPPRLPRPRPRPIQLPRP as the sequence, how does the “shrunken log2 fold change” value read?
A: -0.0767

Q: Which “shrunken log2 fold change” value does the source give for RRIRPRPPRLPRPRPRPWKNPRP here?
A: -0.0413

Q: RRIRIRPPRLPRPRPRPASRPRP was tested. Which “shrunken log2 fold change” value did it give?
A: -0.106

Q: How did the “shrunken log2 fold change” value turn out when RRIRRRPPRLPRPRPRPMEDPRP was run?
A: 0.0525

Q: For RRIRQRPPRLPRPRPRPATIPRP, which “shrunken log2 fold change” value is on record?
A: -0.123

Q: With RRIRWRPPRLPRPRPRPFLEPRP as the sequence, how does the “shrunken log2 fold change” value read?
A: 0.0541

Q: How did the “shrunken log2 fold change” value turn out when RRIRDRPPRLPRPRPRPIMEPRP was run?
A: 0.594

Q: With RRIRKRPPRLPRPRPRPAVEPRP as the sequence, how does the “shrunken log2 fold change” value read?
A: 0.019

Q: Which “shrunken log2 fold change” value does the source give for RRIRTRPPRLPRPRPRPKRGPRP here?
A: 0.175

Q: How did the “shrunken log2 fold change” value turn out when RRIRQRPPRLPRPRPRPIYIPRP was run?
A: -0.46

Q: How did the “shrunken log2 fold change” value turn out when RRIRHRPPRLPRPRPRPNKEPRP was run?
A: 0.000399

Q: Which “shrunken log2 fold change” value does the source give for RRIRTRPPRLPRPRPRPIYRPRP here?
A: -0.0278

Q: How did the “shrunken log2 fold change” value turn out when RRIRNRPPRLPRPRPRPGPGPRP was run?
A: 0.274

Q: RRIRCRPPRLPRPRPRPEHIPRP was tested. Which “shrunken log2 fold change” value did it give?
A: -0.218

Q: How did the “shrunken log2 fold change” value turn out when RRIRRRPPRLPRPRPRPMKKPRP was run?
A: -0.0239

Q: RRIRLRPPRLPRPRPRPQDCPRP was tested. Which “shrunken log2 fold change” value did it give?
A: 0.0274

Q: Which “shrunken log2 fold change” value does the source give for RRIRFRPPRLPRPRPRPRNVPRP here?
A: -0.372

Q: With RRIRNRPPRLPRPRPRPRCIPRP as the sequence, how does the “shrunken log2 fold change” value read?
A: -0.256

Q: Which “shrunken log2 fold change” value does the source give for RRIRNRPPRLPRPRPRPIAPPRP here?
A: 0.0153

Q: Which “shrunken log2 fold change” value does the source give for RRIRMRPPRLPRPRPRPFQAPRP here?
A: 0.242

Q: RRIRRRPPRLPRPRPRPQTYPRP was tested. Which “shrunken log2 fold change” value did it give?
A: -0.0324

Q: How did the “shrunken log2 fold change” value turn out when RRIRNRPPRLPRPRPRPKSTPRP was run?
A: -0.271

Q: With RRIRGRPPRLPRPRPRPMKYPRP as the sequence, how does the “shrunken log2 fold change” value read?
A: 0.0733

Q: Which “shrunken log2 fold change” value does the source give for RRIRMRPPRLPRPRPRPEWYPRP here?
A: 0.0183

Q: How did the “shrunken log2 fold change” value turn out when RRIRTRPPRLPRPRPRPANMPRP was run?
A: -0.291

Q: Which “shrunken log2 fold change” value does the source give for RRIRFRPPRLPRPRPRPEHCPRP here?
A: -0.0154

Q: RRIRQRPPRLPRPRPRPHWHPRP was tested. Which “shrunken log2 fold change” value did it give?
A: -0.465

Q: With RRIRTRPPRLPRPRPRPSMVPRP as the sequence, how does the “shrunken log2 fold change” value read?
A: -0.0429

Q: How did the “shrunken log2 fold change” value turn out when RRIRFRPPRLPRPRPRPHLIPRP was run?
A: -0.415

Q: RRIRRRPPRLPRPRPRPLGCPRP was tested. Which “shrunken log2 fold change” value did it give?
A: 0.166

Q: How did the “shrunken log2 fold change” value turn out when RRIRKRPPRLPRPRPRPGVRPRP was run?
A: 1.16

Q: How did the “shrunken log2 fold change” value turn out when RRIRARPPRLPRPRPRPCQMPRP was run?
A: -0.0341

Q: How did the “shrunken log2 fold change” value turn out when RRIRPRPPRLPRPRPRPFHDPRP was run?
A: 0.000303

Q: How did the “shrunken log2 fold change” value turn out when RRIRHRPPRLPRPRPRPFMKPRP was run?
A: -0.00214

Q: RRIRARPPRLPRPRPRPRYVPRP was tested. Which “shrunken log2 fold change” value did it give?
A: -0.25

Q: For RRIRWRPPRLPRPRPRPYARPRP, which “shrunken log2 fold change” value is on record?
A: 0.101

Q: With RRIRNRPPRLPRPRPRPRSDPRP as the sequence, how does the “shrunken log2 fold change” value read?
A: 0.0587

Q: RRIRFRPPRLPRPRPRPVWYPRP was tested. Which “shrunken log2 fold change” value did it give?
A: -0.308

Q: RRIRCRPPRLPRPRPRPVVHPRP was tested. Which “shrunken log2 fold change” value did it give?
A: -0.55

Q: Which “shrunken log2 fold change” value does the source give for RRIRWRPPRLPRPRPRPLLWPRP here?
A: 0.571

Q: How did the “shrunken log2 fold change” value turn out when RRIRDRPPRLPRPRPRPVAEPRP was run?
A: 1.16

Q: Which “shrunken log2 fold change” value does the source give for RRIRSRPPRLPRPRPRPWWHPRP here?
A: -0.166

Q: With RRIRWRPPRLPRPRPRPRVGPRP as the sequence, how does the “shrunken log2 fold change” value read?
A: 0.563

Q: Which “shrunken log2 fold change” value does the source give for RRIRRRPPRLPRPRPRPQCGPRP here?
A: 0.317

Q: For RRIRPRPPRLPRPRPRPATQPRP, which “shrunken log2 fold change” value is on record?
A: 0.133

Q: For RRIRFRPPRLPRPRPRPTFMPRP, which “shrunken log2 fold change” value is on record?
A: -0.444

Q: With RRIRTRPPRLPRPRPRPWWDPRP as the sequence, how does the “shrunken log2 fold change” value read?
A: 0.132

Q: Which “shrunken log2 fold change” value does the source give for RRIRQRPPRLPRPRPRPNPEPRP here?
A: 0.0266

Q: For RRIRHRPPRLPRPRPRPRLAPRP, which “shrunken log2 fold change” value is on record?
A: 0.206

Q: How did the “shrunken log2 fold change” value turn out when RRIRWRPPRLPRPRPRPNTPPRP was run?
A: 0.144
